Reference: publication doi:10.1101/2024.09.04.610228 (bioRxiv, 2024)
Ends that are not written are not given here.

Target: FOXO4 forkhead domain (FHD) (95-195) (UniProt P98177 95-195)
Experiment: fluorescence polarisation

FOXO4 forkhead domain (FHD) (95-195), sequence (P98177 95-195): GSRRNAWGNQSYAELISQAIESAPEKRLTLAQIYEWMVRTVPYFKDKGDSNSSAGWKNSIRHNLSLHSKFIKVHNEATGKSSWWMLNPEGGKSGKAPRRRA

| Binder | fold enhancement of inhibitory ability against p53 TAD PEP | Kd |
| --- | --- | --- |
| ALMLSPAAIAQWFTAA [CAND] | ~3 fold |  |
| DLMLSPDDIEQWFTED (also: FITC label, position not given here) [FITC-labeled p53 TAD PEP (42-57)] |  | 110 nM |
